Data: article PMC9482650, “Quantitative fragmentomics allow affinity mapping of interactomes” (Nature Communications, 2022)

Assays:
Assay in all cases: holdup assay
Parameters in all cases: key: below the threshold = too weak to quantify, mostly under pKd 3.1 to 4
[1] = target: Inadl_4, Q8NI35
[2] = target: SCRIB_3, Q14160
[3] = target: T1, PDZRN3_1, Q9UPQ7
T1 sequence (Q9UPQ7 244-349, limits assumed, looked up): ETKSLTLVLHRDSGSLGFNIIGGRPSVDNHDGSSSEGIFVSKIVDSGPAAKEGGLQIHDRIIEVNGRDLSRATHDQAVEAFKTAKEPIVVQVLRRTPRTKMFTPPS

[4] = target: GRIP2_6, Q9C0E4
[5] = target: T2, DVL3, Q92997
T2 sequence (Q92997 244-331, limits assumed, looked up): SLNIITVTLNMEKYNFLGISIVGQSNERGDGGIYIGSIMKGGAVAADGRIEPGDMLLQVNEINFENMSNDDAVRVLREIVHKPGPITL

[6] = target: T3, LRRC7, Q96NW7
T3 sequence (Q96NW7 1440-1537, limits assumed, looked up): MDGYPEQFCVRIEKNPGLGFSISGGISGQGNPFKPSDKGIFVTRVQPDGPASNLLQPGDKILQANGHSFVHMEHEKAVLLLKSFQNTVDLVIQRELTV

[7] = target: T4, SNTB1, Q13884
T4 sequence (Q13884 107-205, limits assumed, looked up): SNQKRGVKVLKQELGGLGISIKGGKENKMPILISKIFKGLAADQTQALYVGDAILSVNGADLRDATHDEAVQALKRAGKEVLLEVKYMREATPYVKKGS

[8] = target: Inadl_1, Q8NI35
[9] = target: SCRIB_1, Q14160
[10] = target: T5, DLG3_3, Q92796
T5 sequence (Q92796 374-475, limits assumed, looked up): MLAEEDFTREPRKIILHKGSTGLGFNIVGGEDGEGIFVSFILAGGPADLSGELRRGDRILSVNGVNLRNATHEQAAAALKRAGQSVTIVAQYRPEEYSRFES

[11] = target: PDLIM1, O00151
[12] = target: IL16_1, Q14005
[13] = target: DLG2_2, Q15700
[14] = target: GORASP1, Q9BQQ3
[15] = target: T6, RHPN1, Q8TCX5
T6 sequence (Q8TCX5 508-602, limits assumed, looked up): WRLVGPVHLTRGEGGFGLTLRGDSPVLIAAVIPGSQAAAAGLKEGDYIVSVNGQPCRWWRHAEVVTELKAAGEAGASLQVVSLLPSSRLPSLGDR

[16] = target: T7, MPP7, Q5T2T1
T7 sequence (Q5T2T1 134-230, limits assumed, looked up): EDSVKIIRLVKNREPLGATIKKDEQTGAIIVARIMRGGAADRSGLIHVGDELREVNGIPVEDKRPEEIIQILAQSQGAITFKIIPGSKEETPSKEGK

[17] = target: T8, MPDZ_10, O75970
T8 sequence (O75970 1624-1722, limits assumed, looked up): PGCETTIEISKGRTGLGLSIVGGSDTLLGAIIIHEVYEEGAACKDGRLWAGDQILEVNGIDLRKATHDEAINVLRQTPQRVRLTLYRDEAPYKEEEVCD

[18] = target: GORASP2, Q9H8Y8
[19] = target: NHERF4_1, Q86UT5-2
[20] = target: FRMPD2_1, Q68DX3
[21] = target: T9, MPDZ_5, O75970
T9 sequence (O75970 695-796, limits assumed, looked up): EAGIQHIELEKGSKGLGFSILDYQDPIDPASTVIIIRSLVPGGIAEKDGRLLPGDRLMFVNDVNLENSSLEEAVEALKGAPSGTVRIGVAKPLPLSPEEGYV

[22] = target: NHERF4_4, Q86UT5
[23] = target: T10, DFNB31_1, Q9P202
T10 sequence (Q9P202 135-233, limits assumed, looked up): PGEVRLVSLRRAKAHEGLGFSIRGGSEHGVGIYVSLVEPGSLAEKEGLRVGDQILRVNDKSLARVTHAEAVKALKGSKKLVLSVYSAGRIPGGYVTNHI

[24] = target: T11, APBA3_1, O96018
T11 sequence (O96018 389-490, limits assumed, looked up): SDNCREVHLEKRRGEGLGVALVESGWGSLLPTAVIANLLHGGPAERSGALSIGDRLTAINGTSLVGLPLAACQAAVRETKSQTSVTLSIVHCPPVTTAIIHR

[25] = target: TJP1_2, Q07157
[26] = target: Inadl_3, Q8NI35
[27] = plain residues with an end cap or a label only (N-terminal biotin on a linker: ado-ado)
[28] = modified: phospho on T at position -2 from the C-terminal residue

Sequence of SCRIB_1, Q14160 (Q14160 718-814): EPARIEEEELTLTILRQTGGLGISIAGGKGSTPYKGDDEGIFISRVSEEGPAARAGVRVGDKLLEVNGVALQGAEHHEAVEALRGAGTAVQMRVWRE
Sequence of SCRIB_3, Q14160 (Q14160 999-1103): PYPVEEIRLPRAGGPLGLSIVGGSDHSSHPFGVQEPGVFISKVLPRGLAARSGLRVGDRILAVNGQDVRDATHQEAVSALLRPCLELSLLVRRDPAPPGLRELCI
Sequence of DLG2_2, Q15700 (Q15700 189-283): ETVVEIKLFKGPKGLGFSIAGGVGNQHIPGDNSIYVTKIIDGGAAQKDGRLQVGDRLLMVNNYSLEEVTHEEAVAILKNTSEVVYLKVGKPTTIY
Sequence of PDLIM1, O00151 (O00151 1-87): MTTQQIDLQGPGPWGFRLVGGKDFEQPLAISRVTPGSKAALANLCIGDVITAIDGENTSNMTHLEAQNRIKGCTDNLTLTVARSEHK
Sequence of Inadl_1, Q8NI35 (Q8NI35 113-229): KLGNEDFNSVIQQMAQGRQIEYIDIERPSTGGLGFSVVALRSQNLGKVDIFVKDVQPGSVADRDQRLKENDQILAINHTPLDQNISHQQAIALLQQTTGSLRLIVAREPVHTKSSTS
Sequence of NHERF4_4, Q86UT5 (Q86UT5 464-550): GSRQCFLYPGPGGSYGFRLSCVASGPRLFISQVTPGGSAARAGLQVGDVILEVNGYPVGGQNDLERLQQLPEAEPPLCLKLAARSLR
Sequence of NHERF4_1, Q86UT5-2 (Q86UT5 other isoform, or with tags, fused parts or gaps): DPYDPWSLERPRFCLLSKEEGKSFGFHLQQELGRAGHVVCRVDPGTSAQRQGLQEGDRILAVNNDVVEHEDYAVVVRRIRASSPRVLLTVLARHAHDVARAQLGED
Sequence of Inadl_3, Q8NI35 (Q8NI35 359-469): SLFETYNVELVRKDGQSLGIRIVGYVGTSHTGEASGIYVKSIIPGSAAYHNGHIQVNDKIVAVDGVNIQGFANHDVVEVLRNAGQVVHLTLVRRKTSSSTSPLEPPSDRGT
Sequence of TJP1_2, Q07157 (Q07157 181-274): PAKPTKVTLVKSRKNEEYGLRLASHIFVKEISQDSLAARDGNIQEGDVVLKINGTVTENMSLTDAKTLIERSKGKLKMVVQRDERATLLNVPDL
Sequence of GORASP1, Q9BQQ3 (Q9BQQ3 1-208): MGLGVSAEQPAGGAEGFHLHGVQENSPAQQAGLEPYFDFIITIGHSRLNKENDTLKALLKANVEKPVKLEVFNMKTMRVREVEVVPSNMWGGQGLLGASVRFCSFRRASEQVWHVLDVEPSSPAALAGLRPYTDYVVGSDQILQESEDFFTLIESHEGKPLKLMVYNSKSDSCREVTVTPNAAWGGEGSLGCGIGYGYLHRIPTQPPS
Sequence of FRMPD2_1, Q68DX3 (Q68DX3 770-861): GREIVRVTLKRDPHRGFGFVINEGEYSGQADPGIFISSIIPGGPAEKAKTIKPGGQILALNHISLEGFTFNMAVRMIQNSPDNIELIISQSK
Sequence of GRIP2_6, Q9C0E4 (Q9C0E4 648-740): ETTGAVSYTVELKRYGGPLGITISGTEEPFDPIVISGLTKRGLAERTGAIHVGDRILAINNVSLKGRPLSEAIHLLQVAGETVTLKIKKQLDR
Sequence of Inadl_4, Q8NI35 (Q8NI35 547-651): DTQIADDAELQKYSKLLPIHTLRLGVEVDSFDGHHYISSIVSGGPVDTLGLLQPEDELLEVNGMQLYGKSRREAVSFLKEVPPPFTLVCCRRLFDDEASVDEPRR
Sequence of IL16_1, Q14005 (Q14005 210-306): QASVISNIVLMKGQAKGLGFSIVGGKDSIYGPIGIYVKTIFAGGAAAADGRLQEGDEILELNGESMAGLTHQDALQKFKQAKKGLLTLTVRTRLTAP

B1: GRIN2C, Q14957 (peptide)
chain: RRISSLESEV
pKd [1, 27]: below the threshold
pKd [2, 27]: 4.55
pKd [3, 27]: 4.24
pKd [4, 27]: below the threshold
pKd [5, 27]: below the threshold
pKd [6, 27]: 4.05
pKd [7, 27]: 4.64
pKd [8, 27]: below the threshold
pKd [9, 27]: 4.69
pKd [10, 27]: 4.11
pKd [11, 27]: 3.75
pKd [12, 27]: 4.55
pKd [13, 27]: 5.11
pKd [14, 27]: below the threshold
pKd [15, 27]: 4.66
pKd [16, 27]: below the threshold
pKd [17, 27]: below the threshold
pKd [18, 27]: below the threshold
pKd [19, 27]: 3.71
pKd [20, 27]: below the threshold
pKd [21, 27]: below the threshold
pKd [22, 27]: below the threshold
pKd [23, 27]: 3.67
pKd [24, 27]: below the threshold
pKd [25, 27]: below the threshold
pKd [26, 27]: 3.68

B2: HPV35-E6_-2P, P27228 (peptide)
chain: SKPTRRETEV
pKd [1, 28]: below the threshold
pKd [2, 28]: below the threshold
pKd [3, 28]: below the threshold
pKd [4, 28]: below the threshold
pKd [5, 28]: below the threshold
pKd [6, 28]: below the threshold
pKd [7, 28]: below the threshold
pKd [8, 28]: below the threshold
pKd [9, 28]: below the threshold
pKd [10, 28]: below the threshold
pKd [11, 28]: below the threshold
pKd [12, 28]: below the threshold
pKd [13, 28]: 3.51
pKd [14, 28]: below the threshold
pKd [15, 28]: below the threshold
pKd [16, 28]: below the threshold
pKd [17, 28]: below the threshold
pKd [18, 28]: below the threshold
pKd [19, 28]: 3.6
pKd [20, 28]: below the threshold
pKd [21, 28]: below the threshold
pKd [22, 28]: 3.86
pKd [23, 28]: below the threshold
pKd [24, 28]: below the threshold
pKd [25, 28]: below the threshold
pKd [26, 28]: below the threshold

B3: DCAF7, P61962 (peptide)
chain: YNNCLEILRV
pKd [1, 27]: below the threshold
pKd [2, 27]: below the threshold
pKd [3, 27]: below the threshold
pKd [4, 27]: below the threshold
pKd [5, 27]: 3.55
pKd [6, 27]: below the threshold
pKd [7, 27]: below the threshold
pKd [8, 27]: below the threshold
pKd [9, 27]: below the threshold
pKd [10, 27]: below the threshold
pKd [11, 27]: below the threshold
pKd [12, 27]: below the threshold
pKd [13, 27]: below the threshold
pKd [14, 27]: 4.74
pKd [15, 27]: below the threshold
pKd [16, 27]: below the threshold
pKd [17, 27]: below the threshold
pKd [18, 27]: 5.55
pKd [19, 27]: below the threshold
pKd [20, 27]: below the threshold
pKd [21, 27]: below the threshold
pKd [22, 27]: below the threshold
pKd [23, 27]: below the threshold
pKd [24, 27]: below the threshold
pKd [25, 27]: 4.25
pKd [26, 27]: below the threshold

B4: DGKH, Q86XP1 (peptide)
chain: LGRSTPQSEV
pKd [1, 27]: below the threshold
pKd [2, 27]: 3.8
pKd [3, 27]: below the threshold
pKd [4, 27]: below the threshold
pKd [5, 27]: below the threshold
pKd [6, 27]: below the threshold
pKd [7, 27]: 4.03
pKd [8, 27]: below the threshold
pKd [9, 27]: 3.77
pKd [10, 27]: below the threshold
pKd [11, 27]: below the threshold
pKd [12, 27]: below the threshold
pKd [13, 27]: 3.58
pKd [14, 27]: below the threshold
pKd [15, 27]: 4.49
pKd [16, 27]: below the threshold
pKd [17, 27]: below the threshold
pKd [18, 27]: below the threshold
pKd [19, 27]: below the threshold
pKd [20, 27]: below the threshold
pKd [21, 27]: below the threshold
pKd [22, 27]: below the threshold
pKd [23, 27]: 3.52
pKd [24, 27]: below the threshold
pKd [25, 27]: below the threshold
pKd [26, 27]: below the threshold

B5: GRIK2, Q13002 (peptide)
chain: RRLPGKETMA
pKd [1, 27]: below the threshold
pKd [2, 27]: below the threshold
pKd [3, 27]: below the threshold
pKd [4, 27]: below the threshold
pKd [5, 27]: below the threshold
pKd [6, 27]: below the threshold
pKd [7, 27]: below the threshold
pKd [8, 27]: below the threshold
pKd [9, 27]: below the threshold
pKd [10, 27]: below the threshold
pKd [11, 27]: below the threshold
pKd [12, 27]: below the threshold
pKd [13, 27]: below the threshold
pKd [14, 27]: below the threshold
pKd [15, 27]: below the threshold
pKd [16, 27]: below the threshold
pKd [17, 27]: below the threshold
pKd [18, 27]: 3.55
pKd [19, 27]: below the threshold
pKd [20, 27]: below the threshold
pKd [21, 27]: below the threshold
pKd [22, 27]: below the threshold
pKd [23, 27]: below the threshold
pKd [24, 27]: below the threshold
pKd [25, 27]: below the threshold
pKd [26, 27]: below the threshold
